Source: patent WO2018092907A1 (dated 2018)

T1: TNFR1 on transiently transfected cells (UniProt P19438 30-455, limits assumed)
T1 construct: whole, on cells
T1 sequence (looked up): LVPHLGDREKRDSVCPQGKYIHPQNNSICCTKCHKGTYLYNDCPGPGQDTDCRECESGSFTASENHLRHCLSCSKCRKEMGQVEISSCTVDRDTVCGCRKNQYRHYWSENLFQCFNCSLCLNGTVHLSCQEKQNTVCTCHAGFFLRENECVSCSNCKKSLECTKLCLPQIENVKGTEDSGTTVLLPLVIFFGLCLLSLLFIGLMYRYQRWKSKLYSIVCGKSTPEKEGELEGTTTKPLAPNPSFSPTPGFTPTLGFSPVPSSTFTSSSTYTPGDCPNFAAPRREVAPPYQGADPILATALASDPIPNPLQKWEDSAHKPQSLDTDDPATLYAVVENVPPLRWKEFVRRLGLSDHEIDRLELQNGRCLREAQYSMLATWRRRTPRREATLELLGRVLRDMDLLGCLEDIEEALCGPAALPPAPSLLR

T2: human TNFR2 expressed on the cell membrane (membrane-type TNFR2) (human, UniProt P20333 23-461)
T2 construct: also called TNFRSF1B; cell membrane type TNFR2
T2 sequence: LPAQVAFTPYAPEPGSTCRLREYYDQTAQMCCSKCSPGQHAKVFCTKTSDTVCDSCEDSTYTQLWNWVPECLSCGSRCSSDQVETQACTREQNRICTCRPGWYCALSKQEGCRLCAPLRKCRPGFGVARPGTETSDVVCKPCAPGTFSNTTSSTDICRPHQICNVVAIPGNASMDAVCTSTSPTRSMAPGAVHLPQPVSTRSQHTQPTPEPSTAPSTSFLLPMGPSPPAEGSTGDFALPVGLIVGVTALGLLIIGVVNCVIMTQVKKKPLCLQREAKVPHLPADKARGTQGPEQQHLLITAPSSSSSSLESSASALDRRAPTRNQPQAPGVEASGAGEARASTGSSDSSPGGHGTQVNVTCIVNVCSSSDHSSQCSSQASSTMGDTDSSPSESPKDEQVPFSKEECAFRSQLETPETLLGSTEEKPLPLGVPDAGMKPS

B1: TR109 (anti-TNFR2 antagonist antibody, mouse monoclonal) (antibody, V domains shown)
VH: QVQLKESGPGLVAPSQSLSITCTVSGFSLTVYGVNWVRQPPGKGLEWLGMIWGDGSTAYNSALKSRLTITKDNSKTQVFLKMNSLQTDDTARYYCARDGRRYALDYWGQGTSVTVSS
VL: DIVLTQSPTSLAVSLGQRATISCRASESVDSYGDSFLHWYQQKPGQPPILLIYRASNLDSGIPARFSGSGSRTDFTLTINPVEADDVATYYCQQSNEDPYTFGGGTKLEINR
notes: also called Ep9: TR109; Ep7
B2: humanized TR109 antibody (TR109HUVH1 + TR109HUVL1) (antibody, V domains shown)
VH: QVQLQESGPGLVKPSGTLSLTCAVSGGSISVYGVNWVRQPPGKGLEWIGMIWGDGSTAYNSALKSRVTISVDKSKNQFSLKLSSVTAADTAVYYCARDGRRYALDYWGQGTLVTVSS
VL: DIVMTQSPDSLAVSLGERATINCRASESVDSYGDSFLHWYQQKPGQPPKLLIYRASNLDSGVPDRFSGSGSGTDFTLTISSLQAEDVAVYYCQQSNEDPYTFGQGTKLEIK
notes: also called one of the four humanized TR109 antibodies
B3: humanized TR109 antibody (TR109HUVH1 + TR109HUVL2) (antibody, V domains shown)
VH: QVQLQESGPGLVKPSGTLSLTCAVSGGSISVYGVNWVRQPPGKGLEWIGMIWGDGSTAYNSALKSRVTISVDKSKNQFSLKLSSVTAADTAVYYCARDGRRYALDYWGQGTLVTVSS
VL: EIVLTQSPATLSLSPGERATLSCRASESVDSYGDSFLHWYQQKPGQAPRLLIYRASNLDSGIPARFSGSGSGTDFTLTISSLEPEDFAVYYCQQSNEDPYTFGQGTKLEIK
notes: as for B2
B4: humanized TR109 antibody (TR109HUVH2 + TR109HUVL1) (antibody, V domains shown)
VH: QVQLQESGPGLVKPSETLSLTCTVSGYSISVYGVNWIRQPPGKGLEWIGMIWGDGSTAYNSALKSRVTISVDTSKNQFSLKLSSVTAADTAVYYCARDGRRYALDYWGQGTLVTVSS
VL: DIVMTQSPDSLAVSLGERATINCRASESVDSYGDSFLHWYQQKPGQPPKLLIYRASNLDSGVPDRFSGSGSGTDFTLTISSLQAEDVAVYYCQQSNEDPYTFGQGTKLEIK
notes: as for B2
B5: humanized TR109 antibody (TR109HUVH2 + TR109HUVL2) (antibody, V domains shown)
VH: QVQLQESGPGLVKPSETLSLTCTVSGYSISVYGVNWIRQPPGKGLEWIGMIWGDGSTAYNSALKSRVTISVDTSKNQFSLKLSSVTAADTAVYYCARDGRRYALDYWGQGTLVTVSS
VL: EIVLTQSPATLSLSPGERATLSCRASESVDSYGDSFLHWYQQKPGQAPRLLIYRASNLDSGIPARFSGSGSGTDFTLTISSLEPEDFAVYYCQQSNEDPYTFGQGTKLEIK
notes: as for B2
B6: humanized TR92 antibody (TR92HUVH1 + TR92HUVL1) (antibody, V domains shown)
VH: QVQLVQSGAEVKKPGASVKVSCKASGYTFTESIIHWVRQAPGQGLEWMGWFYPGSDNINYNEKFKDRVTMTRDTSISTAYMELSRLRSDDTAVYYCARHEGPYVYFDYWGQGTTVTVSS
VL: DIVMTQSPDSLAVSLGERATINCKASQDVSTAVAWYQQKPGQPPKLLIYWTSTRHTGVPDRFSGSGSGTDFTLTISSLQAEDVAVYYCQHHYSTPYTFGQGTKLEIK
notes: also called one of the four humanized TR92 antibodies
B7: humanized TR92 antibody (TR92HUVH1 + TR92HUVL2) (antibody, V domains shown)
VH: QVQLVQSGAEVKKPGASVKVSCKASGYTFTESIIHWVRQAPGQGLEWMGWFYPGSDNINYNEKFKDRVTMTRDTSISTAYMELSRLRSDDTAVYYCARHEGPYVYFDYWGQGTTVTVSS
VL: DIQMTQSPSSLSASVGDRVTITCKASQDVSTAVAWYQQKPGKAPKLLIYWTSTRHTGVPSRFSGSGSGTDFTLTISSLQPEDFATYYCQHHYSTPYTFGQGTKLEIK
notes: as for B6
B8: humanized TR92 antibody (TR92HUVH2 + TR92HUVL1) (antibody, V domains shown)
VH: QVQLVQSGAEVKKPGASVKVSCKASGYTFTESIIHWVRQATGQGLEWMGWFYPGSDNINYNEKFKDRVTMTRNTSISTAYMELSSLRSEDTAVYYCARHEGPYVYFDYWGQGTTVTVSS
VL: DIVMTQSPDSLAVSLGERATINCKASQDVSTAVAWYQQKPGQPPKLLIYWTSTRHTGVPDRFSGSGSGTDFTLTISSLQAEDVAVYYCQHHYSTPYTFGQGTKLEIK
notes: as for B6
B9: humanized TR92 antibody (TR92HUVH2 + TR92HUVL2) (antibody, V domains shown)
VH: QVQLVQSGAEVKKPGASVKVSCKASGYTFTESIIHWVRQATGQGLEWMGWFYPGSDNINYNEKFKDRVTMTRNTSISTAYMELSSLRSEDTAVYYCARHEGPYVYFDYWGQGTTVTVSS
VL: DIQMTQSPSSLSASVGDRVTITCKASQDVSTAVAWYQQKPGKAPKLLIYWTSTRHTGVPSRFSGSGSGTDFTLTISSLQPEDFATYYCQHHYSTPYTFGQGTKLEIK
notes: as for B6

biological target: T1, TNFR1 on transiently transfected cells; test: flow cytometry on transiently transfected cells

**Q.** Does B1 bind?
**A.** Result: no binding

biological target: T2, human TNFR2 expressed on the cell …; test: flow cytometry on cells with transient expression of TNFR2 against untreated cells

**Q.** Does B2 bind?
**A.** Result: binds

**Q.** Does B3 bind?
**A.** Result: binds

**Q.** Does B4 bind?
**A.** Result: binds

**Q.** Does B5 bind?
**A.** Result: binds

**Q.** Does B6 bind?
**A.** Result: binds

**Q.** Does B7 bind?
**A.** Result: binds

**Q.** Does B8 bind?
**A.** Result: binds

**Q.** Does B9 bind?
**A.** Result: binds
